Test results as given in the supplement of paper PMC10567573.

B1: LOC100129726 (parent)
chain: AKAADSPTRNDLESGLGHFSLRVH

Variants of: B1
Test: protein stability index of a GFP-peptide fusion (GPS, HEK-293T) (PSI 1-6); higher = more stable
Conditions: c terminus: a fixed tail appended
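Further: lentivirally expressed fusions sorted by FACS into six bins by GFP to DsRed ratio, PSI derived from sequencing read proportions per bin multiplied by bin number.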

Protein stability index, by site and new letter:
R9: P 3.07 | S 3.25 | G 3.84 | H 3.56 | W 1.86 | N 3.51 | E 3.95 | M 3.46 | V 2.71 | I 2.37 | L 2.73 | Y 2.7 | D 3.64 | A 3.47 | T 3.09 | C 3.04 | F 2.4 | Q 3.22 | K 4.17
A4: C 3.05 | F 2.31 | T 3.7 | V 2.4 | N 3.04 | L 2.95 | Q 3.15 | P 3.06 | I 2.98 | G 2.86 | H 3.36 | R 2.81 | M 2.54 | W 2.16 | E 4.12 | S 3.1 | D 3.87 | K 3.09 | Y 2.42
P7: F 2.33 | L 3.09 | M 2.57 | D 3.64 | I 2.75 | W 1.65 | R 3.56 | C 2.16 | Y 2.18 | V 2.7 | A 3.49 | T 3.2 | N 3.27 | S 2.81 | G 2.77 | Q 3.41 | K 2.92 | H 3.45 | E 3.28
A3: K 3.23 | W 2.21 | E 3.8 | Q 3.03 | C 2.73 | Y 2.26 | N 2.97 | S 3.49 | V 2.28 | I 2.69 | P 3.04 | R 3.58 | H 3 | F 2.77 | T 2.58 | M 2.27 | D 3.44 | G 3.42 | L 2.6
G15: R 2.06 | V 2.48 | Q 3.81 | N 2.82 | F 1.74 | T 2.67 | C 2.18 | L 2.37 | M 2.23 | A 2.4 | W 1.57 | P 2.79 | E 2.82 | I 1.86 | D 3.51 | K 2.93 | S 2.86 | Y 2.4 | H 3.26
D11: C 2.91 | W 2.56 | R 2.54 | Q 2.8 | L 1.9 | E 3.9 | Y 2.25 | T 2.3 | I 1.96 | N 2.47 | F 2.75 | A 3.1 | S 2.64 | V 2.21 | G 2.33 | K 2.72 | P 2.35 | M 2.19 | H 2.42
N10: L 2.88 | I 1.78 | M 2.51 | G 2.77 | Y 1.97 | S 3.17 | K 2.98 | C 2.13 | R 3.17 | T 2.79 | V 2.56 | W 1.88 | A 3.06 | F 2.38 | D 3.61 | P 4 | H 3.53 | Q 3.87
L16: W 2.74 | M 3.26 | S 3.77 | I 3.71 | D 3.82 | E 4.23 | N 3.67 | V 2.38 | Q 3.28 | K 3.89 | Y 2.84 | T 3.8 | G 3.58 | R 3.78 | P 3.12 | H 3.44 | A 3.97 | F 2.57
K2: C 2.05 | W 1.66 | S 2.99 | D 3.55 | P 3.23 | A 3.68 | Q 2.69 | V 3.18 | G 2.71 | M 2.78 | F 2.42 | L 3.03 | T 3.27 | E 3.98 | Y 2.49 | I 3.21 | H 3.38 | R 3.38 | N 2.88
T8: V 4.01 | D 3.31 | R 2.53 | C 2.07 | K 2.73 | M 2.12 | A 2.95 | P 3.38 | I 2.45 | S 2.74 | G 3.61 | W 1.98 | F 2.35 | Q 3.1 | N 3.36 | Y 2.75 | L 2.13 | H 2.63
D5: N 2.81 | Y 2.3 | F 2.17 | W 2.14 | C 2.34 | R 2.67 | G 2.9 | A 2.84 | E 3.16 | M 3.06 | P 2.48 | L 2.56 | K 3.19 | I 2.65 | Q 3.15 | S 3.07 | T 2.61 | V 2.54 | H 2.63
E13: P 2.57 | T 2.59 | R 2.38 | Q 2.3 | S 2.8 | C 2.31 | K 2.08 | V 2.52 | M 2.15 | F 2.19 | D 2.95 | I 2.32 | H 2.74 | A 2.26 | W 1.85 | G 2.02 | Y 1.38 | N 2.63
S14: K 3.36 | M 2.5 | A 3.28 | Y 3.97 | L 2.57 | R 2.78 | Q 2.94 | D 3.85 | P 2.85 | T 2.94 | N 3.68 | C 2.34 | I 2.38 | F 2.25 | H 3.21 | E 3.81 | G 2.9 | V 2.63 | W 1.36
H18: S 3.73 | L 2.38 | T 3.05 | D 4.08 | F 2.1 | M 2.29 | A 3.25 | N 3.53 | C 3.2 | V 2.73 | W 1.59 | Y 2.66 | G 3.84 | Q 3.44 | R 3.08 | K 3.15 | E 3.45 | I 3.13 | P 3.04
S6: Y 2.26 | A 2.45 | M 2.16 | H 2.95 | F 2.74 | R 3.08 | V 2.77 | I 2.53 | D 3.44 | C 2.71 | P 3.16 | W 1.92 | N 3.58 | K 2.98 | T 3.39 | L 2.16 | Q 3.76 | G 2.72 | E 3.5
G17: D 3.82 | L 1.65 | N 3.18 | R 2.89 | H 2.57 | K 2.89 | W 2.96 | S 2.84 | Y 2.37 | V 3.13 | E 3.58 | F 2.08 | I 2.28 | A 2.84 | M 2.27 | T 2.56 | P 3.06 | C 2.85
A1: Q 3.38 | T 3.25 | K 3.34 | I 2.48 | N 3.25 | W 2.33 | L 2.9 | M 2.74 | R 2.74 | V 3.39 | P 3.17 | S 3.36 | Y 3.34
F19: D 4.6 | E 4.6 | A 3.95
L12: S 4.46 | I 3 | V 3.62 | W 2.6 | R 3.76 | A 3.47 | E 4 | D 3.9 | Y 1.93 | K 3.92 | H 3.57 | F 3.06 | Q 4.45 | M 3.78 | T 2.91 | N 4.16 | G 3.52 | C 2.82 | P 3.51
